{"source": "patent US20240228595A1", "biological_target": "SARS-COV-2 RBD-his tag protein (Sino Biological) (SARS-CoV-2) (UniProt P0DTC2)", "test": "ELISA, SARS-CoV-2-WA-1 RBD coated, antibody titrated"}
{"substance": "S309 (Sotrovimab) (antibody)", "values": [{"measurement": "EC50", "value": 2, "unit": "ng/mL"}]}
